# Results published in patent publication US20080112961A1 (MacroGenics, published 2008).
# Changes are numbered by the printed parent chain. In names and notes the source's numbering stands.
# T1: FcγRIIB (form not stated) (UniProt P31994 43-217, limits assumed)
# T1 construct: also called FcγRIIB (ELISA)
# T1 sequence (looked up): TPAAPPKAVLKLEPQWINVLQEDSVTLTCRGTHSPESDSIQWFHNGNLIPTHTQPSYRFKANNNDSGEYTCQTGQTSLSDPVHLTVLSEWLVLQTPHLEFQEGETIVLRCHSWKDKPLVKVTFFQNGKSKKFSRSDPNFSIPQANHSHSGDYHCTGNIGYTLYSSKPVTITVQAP
# B1: ch4-4-20 A231V, Q386H, V412M (antibody)
# heavy: ASTKGPSVFPLAPSSKSTSGGTAALGCLVKDYFPEPVTVSWNSGALTSGVHTFPAVLQSSGLYSLSSVVTVPSSSLGTQTYICNVNHKPSNTKVDKKVEPKSCDKTHTCPPCPVPELLGGPSVFLFPPKPKDTLMISRTPEVTCVVVDVSHEDPEVKFNWYVDGVEVHNAKTKPREEQYNSTYRVVSVLTVLHQDWLNGKEYKCKVSNKALPAPIEKTISKAKGQPREPQVYTLPPSRDELTKNQVSLTCLVKGFYPSDIAVEWESNGHPENNYKTTPPVLDSDGSFFLYSKLTMDKSRWQQGNVFSCSVMHEALHNHYTQKSLSLSPGK
# B2: ch4-4-20 V348M, K334N, F275I, Y202M, K147T (antibody)
# chain: B1 heavy with K30T, V85M, V114A, F158I, K217N, V231M, H269Q, M295V
# B3: ch4-4-20 K290T, N390I, P396L (antibody)
# heavy: B1 heavy with V114A, K173T, H269Q, N273I, P279L, M295V
# B4: ch4-4-20 P244H, L358M, V379M, N384K, V397M (antibody)
# heavy: B1 heavy with V114A, P127H, L241M, V262M, N267K, H269Q, V280M, M295V
# B5: ch4-4-20 A378V, N390I, V422I (antibody)
# heavy: B1 heavy with V114A, A261V, H269Q, N273I, M295V, V305I
# B6: ch4-4-20 F275I, K334N, V348M (antibody)
# heavy: B1 heavy with V114A, F158I, K217N, V231M, H269Q, M295V
# B7: ch4-4-20 P247L, A330T, S440G (antibody)
# heavy: B1 heavy with V114A, P130L, A213T, H269Q, M295V, S323G
# B8: ch4-4-20 R301H, K340E, D399E (antibody)
# heavy: B1 heavy with V114A, R184H, K223E, H269Q, D282E, M295V
# B9: ch4-4-20 K290E, V369A, T393A, P396L (antibody)
# heavy: B1 heavy with V114A, K173E, V252A, H269Q, T276A, P279L, M295V
# B10: ch4-4-20 N315I, V379M, T394M (antibody)
# heavy: B1 heavy with V114A, N198I, V262M, H269Q, T277M, M295V
# B11: ch4-4-20 F243L, R255L, E318K (antibody)
# heavy: B1 heavy with V114A, F126L, R138L, E201K, H269Q, M295V
# B12: ch4-4-20 K326I, S408N, P396L (antibody)
# heavy: B1 heavy with V114A, K209I, H269Q, P279L, S291N, M295V
# B13: ch4-4-20 V397M, T411A, S415N (antibody)
# heavy: B1 heavy with V114A, H269Q, V280M, T294A, M295V, S298N
# B14: ch4-4-20 K334E, T359N, T366S, Q386R (antibody)
# heavy: B1 heavy with V114A, K217E, T242N, T249S, H269R, M295V
# B15: ch4-4-20 K246N, Q419R, P396L (antibody)
# heavy: B1 heavy with V114A, K129N, H269Q, P279L, M295V, Q302R
# B16: ch4-4-20 P291S, K288E, H268L, A141V (antibody)
# heavy: B1 heavy with A24V, V114A, H151L, K171E, P174S, H269Q, M295V
# B17: ch4-4-20 F243L, V305I, A378D, F404S, P396L (antibody)
# heavy: B1 heavy with V114A, F126L, V188I, A261D, H269Q, P279L, F287S, M295V
# notes: also called MgFc54
# B18: ch4-4-20 D221Y, M252I, A330G, A339T, T359N, V422I, H433L (antibody)
# heavy: B1 heavy with D104Y, V114A, M135I, A213G, A222T, T242N, H269Q, M295V, V305I, H316L
# B19: ch4-4-20 P247L, A431V, S442F (antibody)
# heavy: B1 heavy with V114A, P130L, H269Q, M295V, A314V, S325F
# B20: ch4-4-20 T335N, K370E, A378V, T394M, S424L (antibody)
# heavy: B1 heavy with V114A, T218N, K253E, A261V, H269Q, T277M, M295V, S307L
# B21: ch4-4-20 K246R, S298N, I377F (antibody)
# heavy: B1 heavy with V114A, K129R, S181N, I260F, H269Q, M295V
# B22: ch4-4-20 P343S, P353L, S375I, S383N (antibody)
# heavy: B1 heavy with V114A, P226S, P236L, S258I, S266N, H269Q, M295V
# B23: ch4-4-20 K222N, T335N, K370E, A378V, T394M (antibody)
# heavy: B1 heavy with K105N, V114A, T218N, K253E, A261V, H269Q, T277M, M295V
# B24: ch4-4-20 V282E, V369I, L406F (antibody)
# heavy: B1 heavy with V114A, V165E, V252I, H269Q, L289F, M295V
# B25: ch4-4-20 P247L, W313R, E388G (antibody)
# heavy: B1 heavy with V114A, P130L, W196R, H269Q, E271G, M295V
# B26: ch4-4-20 F275L, Q362H, N384K, P396L (antibody)
# heavy: B1 heavy with V114A, F158L, Q245H, N267K, H269Q, P279L, M295V
# B27: ch4-4-20 V273I, K326E, L328I, P396L (antibody)
# heavy: B1 heavy with V114A, V156I, K209E, L211I, H269Q, P279L, M295V
# B28: ch4-4-20 D280E, S354F, A431D, L441I (antibody)
# heavy: B1 heavy with V114A, D163E, S237F, H269Q, M295V, A314D, L324I
# B29: ch4-4-20 K326Q, K334E, T359N, T366S (antibody)
# heavy: B1 heavy with V114A, K209Q, K217E, T242N, T249S, H269Q, M295V
# B30: ch4-4-20 T256S, V305I, K334E, N390S (antibody)
# heavy: B1 heavy with V114A, T139S, V188I, K217E, H269Q, N273S, M295V
# B31: ch4-4-20 P247L, I253N, K334N (antibody)
# heavy: B1 heavy with V114A, P130L, I136N, K217N, H269Q, M295V
# B32: ch4-4-20 T215P, K274N, A287G, K334N, L365V, P396L (antibody)
# chain: PEPKSCDKTHTCPPCPAPELLGGPSVFLFPPKPKDTLMISRTPEVTCVVVDVSHEDPEVNFNWYVDGVEVHNGKTKPREEQYNSTYRVVSVLTVLHQDWLNGKEYKCKVSNKALPAPIENTISKAKGQPREPQVYTLPPSRDELTKNQVSVTCLVKGFYPSDIAVEWESNGQPENNYKTTPLVLDSDGSFFLYSKLTVDKSRWQQGNVFSCSVMHEALHNHYTQKSLSLSPGK
# B33: ch4-4-20 K317N, F423-deleted (antibody)
# chain: EPKSCDKTHTCPPCPAPELLGGPSVFLFPPKPKDTLMISRTPEVTCVVVDVSHEDPEVKFNWYVDGVEVHNAKTKPREEQYNSTYRVVSVLTVLHQDWLNGNEYKCKVSNKALPAPIEKTISKAKGQPREPQVYTLPPSREEMTKNQVSLTCLVKGFYPSDIAVEWESNGQPENNYKTTPPVLDSDGSFFLYSKLTVDKSRWQQGNVSCSVMHEALHNHYTQKSLSLSPGK
# B34: ch4-4-20 C229Y, A287T, V379M, P396L, L443V (antibody)
# heavy: B1 heavy with C112Y, V114A, A170T, V262M, H269Q, P279L, M295V, L326V
# B35: ch4-4-20 K334E, E380D, G446V (antibody)
# heavy: B1 heavy with V114A, K217E, E263D, H269Q, M295V, G329V
# B36: ch4-4-20 K246E, V284M, V308A (antibody)
# heavy: B1 heavy with V114A, K129E, V167M, V191A, H269Q, M295V
# B37: ch4-4-20 E269K, K290N, Q311R, H433Y (antibody)
# heavy: B1 heavy with V114A, E152K, K173N, Q194R, H269Q, M295V, H316Y
# B38: ch4-4-20 P244A, K326I, C367R, S375I, K447T (antibody)
# heavy: B1 heavy with V114A, P127A, K209I, C250R, S258I, H269Q, M295V, K330T
# B39: ch4-4-20 K246I, Q362H, K370E (antibody)
# heavy: B1 heavy with V114A, K129I, Q245H, K253E, H269Q, M295V
# B40: ch4-4-20 V303I, V369F, M428L (antibody)
# heavy: B1 heavy with V114A, V186I, V252F, H269Q, M295V, M311L
# Biological target: T2, FcγRIIIA (form not stated) (UniProt P08637 17-208, limits assumed)
# T2 construct: also called FcγRIIIA (ELISA)
# Test: ELISA
# T2 sequence (P08637 17-208 F176V limits assumed, form in doubt): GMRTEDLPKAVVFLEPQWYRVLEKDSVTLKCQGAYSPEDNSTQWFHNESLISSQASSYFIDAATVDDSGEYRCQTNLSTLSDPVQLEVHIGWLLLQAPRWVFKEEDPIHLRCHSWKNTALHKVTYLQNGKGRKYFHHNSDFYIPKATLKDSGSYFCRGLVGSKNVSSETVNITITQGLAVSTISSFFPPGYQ
fold increase vs WT [x],fold decrease vs WT [x],fold vs WT [x],Binder
1.5,–,–,B1
0.5,–,–,B2
2.8,–,–,B3
1.75,–,–,B4
0.5,–,–,B5
0.5,–,–,B6
0.75,–,–,B7
–,0.5,–,B8
1.3,–,–,B9
1,–,–,B10
1,–,–,B11
4,–,–,B12
0.25,–,–,B13
1,–,–,B14
1.1,–,–,B15
–,0.5,–,B16

fold increase vs WT [x],fold decrease vs WT [x],fold vs WT [x],Binder
1.6,–,–,B17
2.5,–,–,B18
–,–,1,B19
0.5,–,–,B20
1,–,–,B21
0.5,–,–,B22
1,–,–,B23
0.5,–,–,B24
1.5,–,–,B25
2.2,–,–,B26
1.3,–,–,B27
3,–,–,B28
1.5,–,–,B29
1.5,–,–,B30
3,–,–,B31

# Biological target: T1, FcγRIIB (form not stated)
# Test: ELISA
fold increase vs WT [x],binding result,fold decrease vs WT [x],Binder
4,–,–,B32
7,–,–,B33
6,–,–,B1
0.75,–,–,B2
6.1,–,–,B3
1.5,–,–,B4
5,–,–,B5
–,binds,–,B6
10,–,–,B34
–,–,0.25,B7
–,–,0.25,B8
–,no binding,–,B35
6.7,–,–,B9
9,–,–,B10
9.3,–,–,B12
5,–,–,B13
–,binds,–,B14
4.8,–,–,B15
5.4,–,–,B17

fold increase vs WT [x],binding result,fold decrease vs WT [x],Binder
6,–,–,B18
–,binds,–,B19
–,no binding,–,B36
–,binds,–,B20
5,–,–,B21
6,–,–,B22
7,–,–,B23
–,no binding,–,B37
7,–,–,B24
1,–,–,B25
3,–,–,B38
–,–,0.5,B39
3.7,–,–,B26
10.8,–,–,B27
–,binds,–,B28
5,–,–,B29
–,binds,–,B30
2.5,–,–,B31
–,no binding,–,B40
